From the supplement of paper PMC9112550, “Optimization of the antimicrobial peptide Bac7 by deep mutational scanning” (BMC Biology, 2022)

System: Escherichia coli TOP10
Assay: shrunken log2 fold change of peptide-encoding DNA abundance (4.5 h post-induction vs induction); higher = less antimicrobial activity (less host growth inhibition)
Conditions: time post-induction: 4.5 h; library: site-saturation at positions 5, 18, 19, 20
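Also: peptides expressed intracellularly from a pBAD plasmid library in pooled LB shake-flask culture, induced with 0.3% L-arabinose, DNA abundance read by NGS, three biological replicates, DESeq2 with apeglm shrinkage.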

RRIRYRPPRLPRPRPRPDHLPRP
shrunken log2 fold change: -0.00968

RRIRYRPPRLPRPRPRPDKIPRP
shrunken log2 fold change: -0.155

RRIRYRPPRLPRPRPRPDKVPRP
shrunken log2 fold change: -0.102

RRIRYRPPRLPRPRPRPDLAPRP
shrunken log2 fold change: -0.344

RRIRYRPPRLPRPRPRPDLTPRP
shrunken log2 fold change: -0.0272

RRIRYRPPRLPRPRPRPDMHPRP
shrunken log2 fold change: -0.231

RRIRYRPPRLPRPRPRPDNPPRP
shrunken log2 fold change: -0.877

RRIRYRPPRLPRPRPRPDPCPRP
shrunken log2 fold change: -0.0185

RRIRYRPPRLPRPRPRPDPVPRP
shrunken log2 fold change: -0.0502

RRIRYRPPRLPRPRPRPDPYPRP
shrunken log2 fold change: -0.222

RRIRYRPPRLPRPRPRPDRPPRP
shrunken log2 fold change: -0.215

RRIRYRPPRLPRPRPRPDSQPRP
shrunken log2 fold change: -0.429

RRIRYRPPRLPRPRPRPDTDPRP
shrunken log2 fold change: -0.02

RRIRYRPPRLPRPRPRPDTGPRP
shrunken log2 fold change: -0.808

RRIRYRPPRLPRPRPRPDTWPRP
shrunken log2 fold change: -0.0135

RRIRYRPPRLPRPRPRPDVAPRP
shrunken log2 fold change: 0.105

RRIRYRPPRLPRPRPRPDVWPRP
shrunken log2 fold change: -0.194

RRIRYRPPRLPRPRPRPDWHPRP
shrunken log2 fold change: -0.32

RRIRYRPPRLPRPRPRPDYIPRP
shrunken log2 fold change: -0.0327

RRIRYRPPRLPRPRPRPEAPPRP
shrunken log2 fold change: -0.0405

RRIRYRPPRLPRPRPRPECTPRP
shrunken log2 fold change: 0.0109

RRIRYRPPRLPRPRPRPEDAPRP
shrunken log2 fold change: -0.0333

RRIRYRPPRLPRPRPRPEFMPRP
shrunken log2 fold change: -0.0255

RRIRYRPPRLPRPRPRPEGPPRP
shrunken log2 fold change: 0.12

RRIRYRPPRLPRPRPRPEIVPRP
shrunken log2 fold change: -0.00224

RRIRYRPPRLPRPRPRPEMKPRP
shrunken log2 fold change: 0.206

RRIRYRPPRLPRPRPRPEMQPRP
shrunken log2 fold change: 0.057

RRIRYRPPRLPRPRPRPEMRPRP
shrunken log2 fold change: 0.0856

RRIRYRPPRLPRPRPRPENPPRP
shrunken log2 fold change: -0.382

RRIRYRPPRLPRPRPRPEPCPRP
shrunken log2 fold change: 0.189

RRIRYRPPRLPRPRPRPEPMPRP
shrunken log2 fold change: -0.0988

RRIRYRPPRLPRPRPRPEQFPRP
shrunken log2 fold change: -0.14

RRIRYRPPRLPRPRPRPEQKPRP
shrunken log2 fold change: 0.0039

RRIRYRPPRLPRPRPRPERLPRP
shrunken log2 fold change: -0.00207

RRIRYRPPRLPRPRPRPERYPRP
shrunken log2 fold change: 0.11

RRIRYRPPRLPRPRPRPESFPRP
shrunken log2 fold change: -0.0275

RRIRYRPPRLPRPRPRPESVPRP
shrunken log2 fold change: -0.316

RRIRYRPPRLPRPRPRPETKPRP
shrunken log2 fold change: -0.485

RRIRYRPPRLPRPRPRPEVLPRP
shrunken log2 fold change: -0.00228

RRIRYRPPRLPRPRPRPEWIPRP
shrunken log2 fold change: 0.0106

RRIRYRPPRLPRPRPRPEYHPRP
shrunken log2 fold change: -0.0883

RRIRYRPPRLPRPRPRPEYKPRP
shrunken log2 fold change: -0.856

RRIRYRPPRLPRPRPRPFALPRP
shrunken log2 fold change: -0.133

RRIRYRPPRLPRPRPRPFEAPRP
shrunken log2 fold change: -0.886

RRIRYRPPRLPRPRPRPFEEPRP
shrunken log2 fold change: -0.0344

RRIRYRPPRLPRPRPRPFEFPRP
shrunken log2 fold change: -0.153

RRIRYRPPRLPRPRPRPFELPRP
shrunken log2 fold change: -0.529

RRIRYRPPRLPRPRPRPFFIPRP
shrunken log2 fold change: -1.11

RRIRYRPPRLPRPRPRPFFTPRP
shrunken log2 fold change: -0.675

RRIRYRPPRLPRPRPRPFGCPRP
shrunken log2 fold change: -0.139

RRIRYRPPRLPRPRPRPFHPPRP
shrunken log2 fold change: -0.146

RRIRYRPPRLPRPRPRPFIEPRP
shrunken log2 fold change: -1.2

RRIRYRPPRLPRPRPRPFISPRP
shrunken log2 fold change: -0.341

RRIRYRPPRLPRPRPRPFKLPRP
shrunken log2 fold change: -0.0907

RRIRYRPPRLPRPRPRPFLNPRP
shrunken log2 fold change: -0.369

RRIRYRPPRLPRPRPRPFMEPRP
shrunken log2 fold change: -0.0943

RRIRYRPPRLPRPRPRPFMHPRP
shrunken log2 fold change: -0.661

RRIRYRPPRLPRPRPRPFMIPRP
shrunken log2 fold change: -1.21

RRIRYRPPRLPRPRPRPFPPPRP
shrunken log2 fold change: -0.809

RRIRYRPPRLPRPRPRPFQDPRP
shrunken log2 fold change: -0.139

RRIRYRPPRLPRPRPRPFQEPRP
shrunken log2 fold change: -0.152

RRIRYRPPRLPRPRPRPFRCPRP
shrunken log2 fold change: 0.0856

RRIRYRPPRLPRPRPRPFSEPRP
shrunken log2 fold change: 0.41

RRIRYRPPRLPRPRPRPFSFPRP
shrunken log2 fold change: -0.35

RRIRYRPPRLPRPRPRPFSGPRP
shrunken log2 fold change: 0.0211

RRIRYRPPRLPRPRPRPFTKPRP
shrunken log2 fold change: -0.184

RRIRYRPPRLPRPRPRPFVHPRP
shrunken log2 fold change: -1.49

RRIRYRPPRLPRPRPRPFVRPRP
shrunken log2 fold change: 0.00599

RRIRYRPPRLPRPRPRPFVVPRP
shrunken log2 fold change: -0.786

RRIRYRPPRLPRPRPRPFVWPRP
shrunken log2 fold change: 0.119

RRIRYRPPRLPRPRPRPFWEPRP
shrunken log2 fold change: 0.13

RRIRYRPPRLPRPRPRPFWNPRP
shrunken log2 fold change: -0.178

RRIRYRPPRLPRPRPRPFYVPRP
shrunken log2 fold change: -0.602

RRIRYRPPRLPRPRPRPGCQPRP
shrunken log2 fold change: 0.0142

RRIRYRPPRLPRPRPRPGDLPRP
shrunken log2 fold change: 0.0641

RRIRYRPPRLPRPRPRPGGVPRP
shrunken log2 fold change: -0.332

RRIRYRPPRLPRPRPRPGHFPRP
shrunken log2 fold change: -0.0316

RRIRYRPPRLPRPRPRPGIMPRP
shrunken log2 fold change: 0.0185

RRIRYRPPRLPRPRPRPGLGPRP
shrunken log2 fold change: -0.0488

RRIRYRPPRLPRPRPRPGLNPRP
shrunken log2 fold change: -0.489

RRIRYRPPRLPRPRPRPGLSPRP
shrunken log2 fold change: -0.439

RRIRYRPPRLPRPRPRPGNCPRP
shrunken log2 fold change: -0.152

RRIRYRPPRLPRPRPRPGNPPRP
shrunken log2 fold change: -0.377

RRIRYRPPRLPRPRPRPGNSPRP
shrunken log2 fold change: -0.0689

RRIRYRPPRLPRPRPRPGPLPRP
shrunken log2 fold change: -0.151

RRIRYRPPRLPRPRPRPGRPPRP
shrunken log2 fold change: 0.0326

RRIRYRPPRLPRPRPRPGSKPRP
shrunken log2 fold change: -0.0678

RRIRYRPPRLPRPRPRPGSPPRP
shrunken log2 fold change: -0.0883

RRIRYRPPRLPRPRPRPGVKPRP
shrunken log2 fold change: -0.188

RRIRYRPPRLPRPRPRPGYLPRP
shrunken log2 fold change: -0.33

RRIRYRPPRLPRPRPRPHELPRP
shrunken log2 fold change: -0.00663

RRIRYRPPRLPRPRPRPHGMPRP
shrunken log2 fold change: -0.922

RRIRYRPPRLPRPRPRPHHGPRP
shrunken log2 fold change: 0.0431

RRIRYRPPRLPRPRPRPHHIPRP
shrunken log2 fold change: -0.356

RRIRYRPPRLPRPRPRPHHLPRP
shrunken log2 fold change: -0.329

RRIRYRPPRLPRPRPRPHIPPRP
shrunken log2 fold change: -0.452

RRIRYRPPRLPRPRPRPHIQPRP
shrunken log2 fold change: -1.03

RRIRYRPPRLPRPRPRPHIRPRP
shrunken log2 fold change: -0.206

RRIRYRPPRLPRPRPRPHKLPRP
shrunken log2 fold change: -0.188

RRIRYRPPRLPRPRPRPHKNPRP
shrunken log2 fold change: -1.06

RRIRYRPPRLPRPRPRPHMGPRP
shrunken log2 fold change: 3.73

RRIRYRPPRLPRPRPRPHMNPRP
shrunken log2 fold change: -1.2

RRIRYRPPRLPRPRPRPHMRPRP
shrunken log2 fold change: -0.02

RRIRYRPPRLPRPRPRPHNEPRP
shrunken log2 fold change: -0.675

RRIRYRPPRLPRPRPRPHPCPRP
shrunken log2 fold change: -0.125

RRIRYRPPRLPRPRPRPHSWPRP
shrunken log2 fold change: -0.69

RRIRYRPPRLPRPRPRPHTRPRP
shrunken log2 fold change: -0.494

RRIRYRPPRLPRPRPRPHVCPRP
shrunken log2 fold change: -0.358

RRIRYRPPRLPRPRPRPHVIPRP
shrunken log2 fold change: -0.448

RRIRYRPPRLPRPRPRPHWYPRP
shrunken log2 fold change: -1.02

RRIRYRPPRLPRPRPRPHYAPRP
shrunken log2 fold change: -0.0853

RRIRYRPPRLPRPRPRPIAKPRP
shrunken log2 fold change: 0.0673

RRIRYRPPRLPRPRPRPIARPRP
shrunken log2 fold change: 0.00902

RRIRYRPPRLPRPRPRPICGPRP
shrunken log2 fold change: -0.359

RRIRYRPPRLPRPRPRPICYPRP
shrunken log2 fold change: -0.691

RRIRYRPPRLPRPRPRPIDHPRP
shrunken log2 fold change: -0.0413

RRIRYRPPRLPRPRPRPIGRPRP
shrunken log2 fold change: -0.0417

RRIRYRPPRLPRPRPRPIKDPRP
shrunken log2 fold change: -0.171

RRIRYRPPRLPRPRPRPILNPRP
shrunken log2 fold change: -0.768

RRIRYRPPRLPRPRPRPIMPPRP
shrunken log2 fold change: -0.948

RRIRYRPPRLPRPRPRPINCPRP
shrunken log2 fold change: -0.122

RRIRYRPPRLPRPRPRPINWPRP
shrunken log2 fold change: -0.446

RRIRYRPPRLPRPRPRPIPIPRP
shrunken log2 fold change: -0.168

RRIRYRPPRLPRPRPRPIQWPRP
shrunken log2 fold change: -0.00101

RRIRYRPPRLPRPRPRPIRVPRP
shrunken log2 fold change: -0.0013

RRIRYRPPRLPRPRPRPISFPRP
shrunken log2 fold change: -0.00256

RRIRYRPPRLPRPRPRPITRPRP
shrunken log2 fold change: 0.0448

RRIRYRPPRLPRPRPRPITWPRP
shrunken log2 fold change: -0.353

RRIRYRPPRLPRPRPRPIVDPRP
shrunken log2 fold change: -0.268

RRIRYRPPRLPRPRPRPIYTPRP
shrunken log2 fold change: -0.943

RRIRYRPPRLPRPRPRPKAHPRP
shrunken log2 fold change: -0.376

RRIRYRPPRLPRPRPRPKCDPRP
shrunken log2 fold change: -0.529

RRIRYRPPRLPRPRPRPKFCPRP
shrunken log2 fold change: -0.291

RRIRYRPPRLPRPRPRPKFEPRP
shrunken log2 fold change: -0.0286

RRIRYRPPRLPRPRPRPKFIPRP
shrunken log2 fold change: -1.39

RRIRYRPPRLPRPRPRPKHIPRP
shrunken log2 fold change: -0.66

RRIRYRPPRLPRPRPRPKIFPRP
shrunken log2 fold change: -0.297

RRIRYRPPRLPRPRPRPKIKPRP
shrunken log2 fold change: -0.583

RRIRYRPPRLPRPRPRPKKQPRP
shrunken log2 fold change: -0.00353

RRIRYRPPRLPRPRPRPKLNPRP
shrunken log2 fold change: -0.689

RRIRYRPPRLPRPRPRPKMIPRP
shrunken log2 fold change: -0.537

RRIRYRPPRLPRPRPRPKQEPRP
shrunken log2 fold change: -0.017

RRIRYRPPRLPRPRPRPKRFPRP
shrunken log2 fold change: 0.00705

RRIRYRPPRLPRPRPRPKRKPRP
shrunken log2 fold change: -0.128

RRIRYRPPRLPRPRPRPKRVPRP
shrunken log2 fold change: 0.0354

RRIRYRPPRLPRPRPRPKTEPRP
shrunken log2 fold change: -0.00177

RRIRYRPPRLPRPRPRPKTHPRP
shrunken log2 fold change: -0.661

RRIRYRPPRLPRPRPRPKVYPRP
shrunken log2 fold change: -1.13

RRIRYRPPRLPRPRPRPKYDPRP
shrunken log2 fold change: -0.324

RRIRYRPPRLPRPRPRPKYTPRP
shrunken log2 fold change: -0.415
